Data published in patent US20250066503A1, “CELL INJURY INDUCING THERAPEUTIC DRUG FOR USE IN CANCER THERAPY” (CHUGAI SEIYAKU KABUSHIKI KAISHA, priority 2016, published 2025).

Biological target: T1, human GPC3 (human, UniProt P51654 25-563)
T1 construct: range 25-563; soluble analyte; also called soluble human GPC3; glypican 3
Assay: SPR

T1 sequence (P51654 25-563 limits assumed): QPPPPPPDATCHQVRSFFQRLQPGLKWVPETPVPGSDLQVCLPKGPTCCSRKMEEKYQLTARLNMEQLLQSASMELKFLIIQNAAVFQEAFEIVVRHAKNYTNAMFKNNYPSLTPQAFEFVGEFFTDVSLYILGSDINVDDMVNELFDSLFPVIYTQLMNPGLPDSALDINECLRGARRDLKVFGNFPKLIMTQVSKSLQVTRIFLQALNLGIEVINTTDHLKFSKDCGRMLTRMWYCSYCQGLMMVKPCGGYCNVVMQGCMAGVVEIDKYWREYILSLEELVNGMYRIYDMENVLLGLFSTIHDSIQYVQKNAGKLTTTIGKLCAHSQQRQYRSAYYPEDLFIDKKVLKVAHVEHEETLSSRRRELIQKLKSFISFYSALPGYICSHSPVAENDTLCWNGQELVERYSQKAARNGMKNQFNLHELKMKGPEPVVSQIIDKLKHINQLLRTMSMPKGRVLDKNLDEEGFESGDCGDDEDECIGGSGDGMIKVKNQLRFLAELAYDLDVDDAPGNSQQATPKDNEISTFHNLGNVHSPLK

| Binder | Kd [nM] |
| --- | --- |
| H0610-G1dh/none-Hi-Kn010G3/L0239-k0 (antibody, V domains shown, one-arm) VH: QVQLVQSGAEVKKPGASVKVSCKASGYTFTDYEMHWIRQPPGQGLEWIGAIDGKTPDTAYSQKFKGRVTLTADKSTSTAYMELSSLTSEDTAVYYCTRFYSYTYWGQGTLVTVSS VL: DIVMTQSPLSLPVTPGEPASISCRSSESPVHSNRNTYLHWYQQKPGQAPRLLIYKVSNRFRGVPDRFSGSGSGTDFTLKISRVEAEDVGVYYCGQGTQVPYTFGQGTKLEIK | 0.874 |
| H0610-G1dh/none-Hi-Kn010G3/L0248-k0 (antibody, V domains shown, one-arm) VH: QVQLVQSGAEVKKPGASVKVSCKASGYTFTDYEMHWIRQPPGQGLEWIGAIDGKTPDTAYSQKFKGRVTLTADKSTSTAYMELSSLTSEDTAVYYCTRFYSYTYWGQGTLVTVSS VL: DIVMTQSPLSLPVTPGEPASISCRPSQSPVHSNRNTYIQWYQQKPGQAPRLLIYKVSNRFSGVPDRFSGSGSGTDFTLKISRVEAEDVGVYYCYQGTQVPYTFGQGTKLEIK | 0.0555 |
| H0610-G1dh/none-Hi-Kn010G3/L0259-k0 (antibody, V domains shown, one-arm) VH: QVQLVQSGAEVKKPGASVKVSCKASGYTFTDYEMHWIRQPPGQGLEWIGAIDGKTPDTAYSQKFKGRVTLTADKSTSTAYMELSSLTSEDTAVYYCTRFYSYTYWGQGTLVTVSS VL: DIVMTQSPLSLPVTPGEPASISCRSSQSPVHSNRNTYIHWYQQKPGQAPRLLIYKVSNRFSGVPDRFSGSGSGTDFTLKISRVEAEDVGVYYCTQGTQVPYTFGQGTKLEIK | 0.334 |
| H0610-G1dh/none-Hi-Kn010G3/L0263-k0 (antibody, V domains shown, one-arm) VH: QVQLVQSGAEVKKPGASVKVSCKASGYTFTDYEMHWIRQPPGQGLEWIGAIDGKTPDTAYSQKFKGRVTLTADKSTSTAYMELSSLTSEDTAVYYCTRFYSYTYWGQGTLVTVSS VL: DIVMTQSPLSLPVTPGEPASISCRSSQSPVHSNRNTYIHWYQQKPGQAPRLLIYKVSNRFSGVPDRFSGSGSGTDFTLKISRVEAEDVGVYYCAQGTQVPYTFGQGTKLEIK | 0.564 |
| H0610-G1dh/none-Hi-Kn010G3/L0264-k0 (antibody, V domains shown, one-arm) VH: QVQLVQSGAEVKKPGASVKVSCKASGYTFTDYEMHWIRQPPGQGLEWIGAIDGKTPDTAYSQKFKGRVTLTADKSTSTAYMELSSLTSEDTAVYYCTRFYSYTYWGQGTLVTVSS VL: DIVMTQSPLSLPVTPGEPASISCRPSQSPVHSNRNTYLHWYQQKPGQAPRLLIYKVSNRFSGVPDRFSGSGSGTDFTLKISRVEAEDVGVYYCAQGTQVPYTFGQGTKLEIK | 0.219 |
| H0610-G1dh/none-Hi-Kn010G3/L0266-k0 (antibody, V domains shown, one-arm) VH: QVQLVQSGAEVKKPGASVKVSCKASGYTFTDYEMHWIRQPPGQGLEWIGAIDGKTPDTAYSQKFKGRVTLTADKSTSTAYMELSSLTSEDTAVYYCTRFYSYTYWGQGTLVTVSS VL: DIVMTQSPLSLPVTPGEPASISCRSSQPPVHSNRNTYLHWYQQKPGQAPRLLIYKVSNRFSGVPDRFSGSGSGTDFTLKISRVEAEDVGVYYCVQGTQVPYTFGQGTKLEIK | 0.213 |
| H0610-G1dh/none-Hi-Kn010G3/TR01L003-k0 (antibody, V domains shown, one-arm) VH: QVQLVQSGAEVKKPGASVKVSCKASGYTFTDYEMHWIRQPPGQGLEWIGAIDGKTPDTAYSQKFKGRVTLTADKSTSTAYMELSSLTSEDTAVYYCTRFYSYTYWGQGTLVTVSS VL: DIVMTQSPLSLPVTPGEPASISCRSSQSLVHSNRNTYLHWYQQKPGQAPRLLIYKVSNRFSGVPDRFSGSGSGTDFTLKISRVEAEDVGVYYCGQGTQVPYTFGQGTKVEIE | 5.08 |
| H0610-G1dh/none-Hi-Kn010G3/TR01L005-k0 (antibody, V domains shown, one-arm) VH: QVQLVQSGAEVKKPGASVKVSCKASGYTFTDYEMHWIRQPPGQGLEWIGAIDGKTPDTAYSQKFKGRVTLTADKSTSTAYMELSSLTSEDTAVYYCTRFYSYTYWGQGTLVTVSS VL: DIVMTQSPLSLPVTPGEPASISCRSSQSLVHSNRNTYLHWYLQKPGQSPQLLIYKVSNRFSGVPDRFSGSGSGTDFTLKISRVEAEDVGVYYCGQGTQVPYTFGQGTKVEIE | 5.37 |
| H0610-G1dh/none-Hi-Kn010G3/TR01L008-k0 (antibody, V domains shown, one-arm) VH: QVQLVQSGAEVKKPGASVKVSCKASGYTFTDYEMHWIRQPPGQGLEWIGAIDGKTPDTAYSQKFKGRVTLTADKSTSTAYMELSSLTSEDTAVYYCTRFYSYTYWGQGTLVTVSS VL: DIVMTQSPLSLPVTPGEPASISCQASESLVHSNRNTYLHWYQQKPGQAPRLLIYKVSNRFRGVPDRFSGSGSGTDFTLKISRVEAEDVGVYYCGQGTQVPYTFGQGTKLEIK | 3.48 |

The remaining lines, values ahead:

| Kd [nM] | Binder |
| --- | --- |
| 0.848 | H0610-G1dh/none-Hi-Kn010G3/L0240-k0 (antibody, V domains shown, one-arm) VH: QVQLVQSGAEVKKPGASVKVSCKASGYTFTDYEMHWIRQPPGQGLEWIGAIDGKTPDTAYSQKFKGRVTLTADKSTSTAYMELSSLTSEDTAVYYCTRFYSYTYWGQGTLVTVSS VL: DIVMTQSPLSLPVTPGEPASISCRSSESPVHSNRNTYLHWYQQKPGQAPRLLIYKVSNRFSGVPDRFSGSGSGTDFTLKISRVEAEDVGVYYCYQGTQVPYTFGQGTKLEIK |
| 1.19 | H0610-G1dh/none-Hi-Kn010G3/L0242-k0 (antibody, V domains shown, one-arm) VH: QVQLVQSGAEVKKPGASVKVSCKASGYTFTDYEMHWIRQPPGQGLEWIGAIDGKTPDTAYSQKFKGRVTLTADKSTSTAYMELSSLTSEDTAVYYCTRFYSYTYWGQGTLVTVSS VL: DIVMTQSPLSLPVTPGEPASISCRSSESPVHSNRNTYIHWYQQKPGQAPRLLIYKVSNRFSGVPDRFSGSGSGTDFTLKISRVEAEDVGVYYCYQGTQVPYTFGQGTKLEIK |
| 0.649 | H0610-G1dh/none-Hi-Kn010G3/L0243-k0 (antibody, V domains shown, one-arm) VH: QVQLVQSGAEVKKPGASVKVSCKASGYTFTDYEMHWIRQPPGQGLEWIGAIDGKTPDTAYSQKFKGRVTLTADKSTSTAYMELSSLTSEDTAVYYCTRFYSYTYWGQGTLVTVSS VL: DIVMTQSPLSLPVTPGEPASISCRSSEPPVHSNRNTYLHWYQQKPGQAPRLLIYKVSNRFRGVPDRFSGSGSGTDFTLKISRVEAEDVGVYYCGQGTQVPYTFGQGTKLEIK |
| 0.00121 | H0610-G1dh/none-Hi-Kn010G3/L0246-k0 (antibody, V domains shown, one-arm) VH: QVQLVQSGAEVKKPGASVKVSCKASGYTFTDYEMHWIRQPPGQGLEWIGAIDGKTPDTAYSQKFKGRVTLTADKSTSTAYMELSSLTSEDTAVYYCTRFYSYTYWGQGTLVTVSS VL: DIVMTQSPLSLPVTPGEPASISCRSSQSPVHSNRNTYIQWYQQKPGQAPRLLIYKVSNRFSGVPDRFSGSGSGTDFTLKISRVEAEDVGVYYCSQGTQVPYTFGQGTKLEIK |
| 0.00686 | H0610-G1dh/none-Hi-Kn010G3/L0249-k0 (antibody, V domains shown, one-arm) VH: QVQLVQSGAEVKKPGASVKVSCKASGYTFTDYEMHWIRQPPGQGLEWIGAIDGKTPDTAYSQKFKGRVTLTADKSTSTAYMELSSLTSEDTAVYYCTRFYSYTYWGQGTLVTVSS VL: DIVMTQSPLSLPVTPGEPASISCRPSQSPVHSNRNTYIQWYQQKPGQAPRLLIYKVSNRFSGVPDRFSGSGSGTDFTLKISRVEAEDVGVYYCSQGTQVPYTFGQGTKLEIK |
| 0.000352 | H0610-G1dh/none-Hi-Kn010G3/L0258-k0 (antibody, V domains shown, one-arm) VH: QVQLVQSGAEVKKPGASVKVSCKASGYTFTDYEMHWIRQPPGQGLEWIGAIDGKTPDTAYSQKFKGRVTLTADKSTSTAYMELSSLTSEDTAVYYCTRFYSYTYWGQGTLVTVSS VL: DIVMTQSPLSLPVTPGEPASISCRSSQPPVHSNRNTYLHWYQQKPGQAPRLLIYKVSNRFSGVPDRFSGSGSGTDFTLKISRVEAEDVGVYYCTQGTQVPYTFGQGTKLEIK |
| 0.0107 | H0610-G1dh/none-Hi-Kn010G3/L0261-k0 (antibody, V domains shown, one-arm) VH: QVQLVQSGAEVKKPGASVKVSCKASGYTFTDYEMHWIRQPPGQGLEWIGAIDGKTPDTAYSQKFKGRVTLTADKSTSTAYMELSSLTSEDTAVYYCTRFYSYTYWGQGTLVTVSS VL: DIVMTQSPLSLPVTPGEPASISCRSSQSPVHSNRNTYIQWYQQKPGQAPRLLIYKVSNRFSGVPDRFSGSGSGTDFTLKISRVEAEDVGVYYCTQGTQVPYTFGQGTKLEIK |
| 0.211 | H0610-G1dh/none-Hi-Kn010G3/L0262-k0 (antibody, V domains shown, one-arm) VH: QVQLVQSGAEVKKPGASVKVSCKASGYTFTDYEMHWIRQPPGQGLEWIGAIDGKTPDTAYSQKFKGRVTLTADKSTSTAYMELSSLTSEDTAVYYCTRFYSYTYWGQGTLVTVSS VL: DIVMTQSPLSLPVTPGEPASISCRSSQPPVHSNRNTYLHWYQQKPGQAPRLLIYKVSNRFSGVPDRFSGSGSGTDFTLKISRVEAEDVGVYYCAQGTQVPYTFGQGTKLEIK |
| 0.0087 | H0610-G1dh/none-Hi-Kn010G3/L0265-k0 (antibody, V domains shown, one-arm) VH: QVQLVQSGAEVKKPGASVKVSCKASGYTFTDYEMHWIRQPPGQGLEWIGAIDGKTPDTAYSQKFKGRVTLTADKSTSTAYMELSSLTSEDTAVYYCTRFYSYTYWGQGTLVTVSS VL: DIVMTQSPLSLPVTPGEPASISCRSSQSPVHSNRNTYIQWYQQKPGQAPRLLIYKVSNRFSGVPDRFSGSGSGTDFTLKISRVEAEDVGVYYCAQGTQVPYTFGQGTKLEIK |
| 0.179 | H0610-G1dh/none-Hi-Kn010G3/L0267-k0 (antibody, V domains shown, one-arm) VH: QVQLVQSGAEVKKPGASVKVSCKASGYTFTDYEMHWIRQPPGQGLEWIGAIDGKTPDTAYSQKFKGRVTLTADKSTSTAYMELSSLTSEDTAVYYCTRFYSYTYWGQGTLVTVSS VL: DIVMTQSPLSLPVTPGEPASISCRPSQSPVHSNRNTYLHWYQQKPGQAPRLLIYKVSNRFSGVPDRFSGSGSGTDFTLKISRVEAEDVGVYYCVQGTQVPYTFGQGTKLEIK |
| 0.0169 | H0610-G1dh/none-Hi-Kn010G3/L0268-k0 (antibody, V domains shown, one-arm) VH: QVQLVQSGAEVKKPGASVKVSCKASGYTFTDYEMHWIRQPPGQGLEWIGAIDGKTPDTAYSQKFKGRVTLTADKSTSTAYMELSSLTSEDTAVYYCTRFYSYTYWGQGTLVTVSS VL: DIVMTQSPLSLPVTPGEPASISCRSSQSPVHSNRNTYIQWYQQKPGQAPRLLIYKVSNRFSGVPDRFSGSGSGTDFTLKISRVEAEDVGVYYCVQGTQVPYTFGQGTKLEIK |
| 0.459 | H0610-G1dh/none-Hi-Kn010G3/L0269-k0 (antibody, V domains shown, one-arm) VH: QVQLVQSGAEVKKPGASVKVSCKASGYTFTDYEMHWIRQPPGQGLEWIGAIDGKTPDTAYSQKFKGRVTLTADKSTSTAYMELSSLTSEDTAVYYCTRFYSYTYWGQGTLVTVSS VL: DIVMTQSPLSLPVTPGEPASISCRSSQSPVHSNRNTYIQWYQQKPGQAPRLLIYKVSNRFSGVPDRFSGSGSGTDFTLKISRVEAEDVGVYYCGQGTQVPYTFGQGTKLEIK |
| 3.81 | H0610-G1dh/none-Hi-Kn010G3/TR01L009-k0 (antibody, V domains shown, one-arm) VH: QVQLVQSGAEVKKPGASVKVSCKASGYTFTDYEMHWIRQPPGQGLEWIGAIDGKTPDTAYSQKFKGRVTLTADKSTSTAYMELSSLTSEDTAVYYCTRFYSYTYWGQGTLVTVSS VL: DIVMTQSPLSLPVTPGEPASISCRSSQSLVHSNRNTYLHWYLQKPGQSPQLLIYKVSNRFRGVPDRFSGSGSGTDFTLKISRVEAEDVGVYYCGQGTQVPYTFGQGTKLEIK |
